Measurements reported in article PMC2927733.
Where “and” joins values, the source holds several entries; their conditions need not be identical. Equal entries are not always repeated. One block for each substance: values may come before it.

How the values were obtained:
[1] = biological target: PccB D422A (Streptomyces coelicolor); assay: crystal structure
[2] = biological target: PccB D422C (Streptomyces coelicolor); assay: crystal structure
[3] = biological target: PccB D422C (Streptomyces coelicolor); assay: SEC
[4] = biological target: PccB D422E (Streptomyces coelicolor); assay: SEC
[5] = biological target: PccB D422F (Streptomyces coelicolor); assay: SEC
[6] = biological target: PccB D422I (Streptomyces coelicolor); assay: SEC
[7] = biological target: PccB D422L (Streptomyces coelicolor); assay: crystal structure
[8] = biological target: PccB D422L (Streptomyces coelicolor); assay: SEC
[9] = biological target: PccB D422N (Streptomyces coelicolor); assay: crystal structure
[10] = biological target: PccB D422N (Streptomyces coelicolor); assay: SEC
[11] = biological target: PccB D422Q (Streptomyces coelicolor); assay: SEC
[12] = biological target: PccB D422V (Streptomyces coelicolor); assay: crystal structure
[13] = biological target: PccB D422V (Streptomyces coelicolor); assay: SEC
[14] = biological target: PccB D422Y (Streptomyces coelicolor); assay: SEC
[15] = biological target: PccB N80A (Streptomyces coelicolor); assay: SEC
[16] = biological target: PccB R456A (Streptomyces coelicolor); assay: SEC
[17] = biological target: PccB R456A/R457A (Streptomyces coelicolor); assay: SEC
[18] = biological target: wild type PccB, β subunit of propionyl-CoA carboxylase (PCC) of Streptomyces coelicolor (Streptomyces coelicolor); assay: SEC

Substance: PccB D422C (enzyme)
- stoichiometry N [2]: 6
- stoichiometry N [3]: 6

Substance: PccB D422E (enzyme)
- stoichiometry N [4]: 6

Substance: PccB D422L (enzyme)
- stoichiometry N [7]: 6
- stoichiometry N [8]: 6

Substance: PccB D422N (enzyme)
- stoichiometry N [9]: 6
- stoichiometry N [10]: 6

Substance: PccB R456A (enzyme)
- ratio of dimer to hexamer (dimer:hexamer) [16]: 2.2
- stoichiometry N [16]: 2 and 6

Substance: wild type PccB, β subunit of propionyl-CoA carboxylase (PCC) of Streptomyces coelicolor (enzyme)
- stoichiometry N [18]: 6

More lines, now with the values ahead:

- stoichiometry N [1]: 6
Substance: PccB D422A (enzyme)

- stoichiometry N [5]: 2 and 3
Substance: PccB D422F (enzyme)

- stoichiometry N [6]: 6
Substance: PccB D422I (enzyme)

- stoichiometry N [11]: 2 and 3
Substance: PccB D422Q (enzyme)

- stoichiometry N [12]: 6
- stoichiometry N [13]: 6
Substance: PccB D422V (enzyme)

- stoichiometry N [14]: 6
Substance: PccB D422Y (enzyme)

- ratio of dimer to hexamer (dimer:hexamer) [15]: 2
- stoichiometry N [15]: 2 and 6
Substance: PccB N80A (enzyme)

- ratio of dimer to hexamer (dimer:hexamer) [17]: 2.9
- stoichiometry N [17]: 2 and 6
Substance: PccB R456A/R457A (enzyme)
